Laboratory results from patent US10736933B2, “Peptide-induced NK cell activation” (priority 2015, dated 2020).

Key:
HLA-Cw*0102 [1] = target: T1, HLA-Cw*0102 (Homo sapiens, UniProt P10321, A176E/A330V/A35S/A97T/C350S/D114A/D33F/L171W/L180R/L218V/M285V/M309V/M331V/P208H/Q277E/Q291P/R121W/R243W/R30K/S123C/S140Y/S297R/T329A/T363A/V272M/V319A); assay: Peptide binding to HLA-Cw*0102 on L721.174 cells (cell surface MHC class I, flow cytometry); assay type: cell-based; conditions: increasing concentrations of peptide, overnight at 26° C.
Procedure: The HLA-Cw*0102-positive cell line L721.174 was incubated with increasing concentrations of the LNPSVAATL (SEQ ID NO: 5) peptide or a control peptide VAPWNSLSL (SEQ ID NO: 11). Cells were stained for cell surface of MHC class I and analysed by flow cytometry. The mean fluorescence intensity of cell surface MHC Class I was plotted against the peptide concentration.
The HLA-Cw*0102 • positive cell line L721.174 was incubated with increasing concentrations of the peptides IVDLMCHATF (SEQ ID NO: 1); VIDAMCHATL (SEQ ID NO: 2); AANVMAASL (SEQ ID NO: 3); and FLSDVPVATL (SEQ ID NO: 4) or a control peptide […]. Cells were stained for cell surface of MHC class I and analysed by flow cytometry. The mean fluorescence intensity of cell surface MHC Class I was plotted against the peptide concentration.
3×10^5 cells were used per condition. Following washing in PBS the cells were stained for cell surface of MHC class I and analysed by flow cytometry. The mean fluorescence intensity of cell surface MHC Class I was plotted against the peptide concentration.
With reference to FIG. 12, the HLA-Cw*0102-positive cell line L721.174 was incubated with increasing concentrations of the peptides IVDLMCHATF (SEQ ID NO: 1), VIDAMCHATL (SEQ ID NO: 2), AANVMAASL (SEQ ID NO: 3); and FLSDVPVATL (SEQ ID NO: 4) overnight at 26° C. 3×10^5 cells were used per condition. Following washing in PBS the cells were stained for cell surface of MHC class I and analysed by flow cytometry. The mean fluorescence intensity of cell surface MHC Class I was plotted against the peptide concentration.

KIR2DS2 = target: T2, KIR2DS2 (Homo sapiens, UniProt P43631); assay: KIR2DS2 tetramer (KIR2DS2-PE) staining of peptide-loaded L721.174 cells; assay type: binding; conditions: L721.174 cells incubated overnight at 26° C. with peptide, flow cytometry
T2 construct: made in house
Procedure: A. The KIR2DS2 protein was expressed with a biotinylation C-terminal tag. Following biotinylation with the BirA enzyme, the KIR2DS2 protein was incubated with streptavidin-phycoerythrin to form fluorescent KIR2DS2-tetramers (KIR2DS2-PE). L721.174 cells were then incubated with indicated peptides. Cells were then stained with KIR2DS2-PE and analysed by flow cytometry. Shown are histogram plots. The bold numbers represent the mean fluorescent staining intensity of the KIR2DS2-PE staining of the cells in the presence of peptide and the non-bold numbers the staining in the absence of peptide. B. Represents the mean and standard error fluorescent intensities of the experiment in “A” following replicate experiments.
A. L721.174 cells were incubated with indicated peptides. Cells were then stained with KIR2DS2-PE (see FIG. 4) and analysed by flow cytometry. Shown are histogram plots. The bold numbers represent the mean fluorescent staining intensity of the KIR2DS2-PE staining of the cells in the presence of peptide and the non-bold numbers the staining in the absence of peptide. B. Represents the mean and standard error fluorescent intensities of the experiment in “A” following replicate experiments.
FIG. 13—KIR2DS2 tetramer staining on 174 cells with and without peptides. Peptides tested include IVDLMCHATF (SEQ ID NO: 1); VIDAMCHATL (SEQ ID NO: 2); AANVMAASL (SEQ ID NO: 3); and FLSDVPVATL (SEQ ID NO: 4). A negative control peptide VAPWNSFAL (SEQ ID NO: 12) and positive control peptide LNPSVAATL (SEQ ID NO: 5) were included. The mean fluorescence intensity of the KIR2DS2 tetramer staining is shown in the right hand corner of the graph.
With reference to FIG. 4A, the KIR2DS2 protein was expressed as a recombinant protein with a biotinylation C-terminal tag. Following biotinylation with the BirA enzyme, the KIR2DS2 protein was incubated with streptavidin-phycoerythrin to form fluorescent KIR2DS2-tetramers (KIR2DS2-PE). 3×10^5 L721.174 cells were then incubated overnight at 26° C. with indicated peptides at a concentration of […]. Cells were then stained with KIR2DS2-PE and analysed by flow cytometry. Shown are histogram plots. The bold numbers represent the mean fluorescent staining intensity of the KIR2DS2-PE staining of the cells in the presence of peptide and the non-bold numbers the staining in the absence of peptide. With reference to FIG. 4B, panel B represents the mean and standard error fluorescent intensities of the experiment in “A” following replicate experiments.
With reference to FIG. 5A, 3×10^5 L721.174 cells were incubated overnight at 26° C. with indicated peptides at a concentration of 200 μM. Cells were then stained with KIR2DS2-PE (see FIG. 4) and analysed by flow cytometry. Shown are histogram plots. The bold numbers represent the mean fluorescent staining intensity of the KIR2DS2-PE staining of the cells in the presence of peptide and the non-bold numbers the staining in the absence of peptide. With reference to FIG. 5B, panel B represents the mean and standard error fluorescent intensities of the experiment in “A” following replicate experiments.
With reference to FIG. 13, the KIR2DS2 protein was expressed as a recombinant protein with a biotinylation C-terminal tag. Following biotinylation with the BirA enzyme, the KIR2DS2 protein was incubated with streptavidin-phycoerythrin to form fluorescent KIR2DS2-tetramers (KIR2DS2-PE). […] Cells were then stained with KIR2DS2-PE and analysed by flow cytometry. […]

[2] = tested on: NKL cell line transfected with KIR2DS2; assay: Vav1 phosphorylation (pVav1 Western blot) in NKL cells transfected with KIR2DS2; assay type: cell-based; conditions: HLA-C*0304:ICP47:721.221 cells loaded with peptide; 5 minutes
Procedure: A. L721.174 cells were incubated with indicated peptides. The cells were then incubated with the NK cell line transfected with KIR2DS2. The cells were lysed and the KIR2DS2 was then immunoprecipitated from the mixture using the GL183 antibody coupled to protein-G beads. The immune precipitate was analysed by Western blotting using a phosphotyrosine antibody. The membrane was then stripped and reprobed with an antibody to DAP12 the molecule that transduces a positive signal from KIR2DS2. Shown are the regions on the blots at the level of DAP12 (12-15 kDa). B. L721.174 cells were incubated with indicated peptides. The cells were then incubated with the NK cell line transfected with KIR2DS2 or transfected with KIR2DL2. The cells were lysed in 1% NP-40 and then analysed by Western blotting using antibodies to pVav1 and then following stripping of the membrane to Vav1. Shown are Western blots around the 98 kDa region, and below them the corresponding densitometries for 3 independent experiments.
FIG. 7 1×10^6 L721.221-HLA-C*0304-ICP47 cells were incubated overnight at 26° C. with indicated peptides at a concentration of […]. The cells were then incubated with the NKL cell line transfected with KIR2DS2 or transfected with KIR2DL2 for 5 minutes. The cells were lysed in 1% NP-40 and then analysed by Western blotting using antibodies to pVav1 and then following stripping of the membrane to Vav1. Shown are Western blots around the 98 kDa region, and below them the corresponding densitometries for 2 independent experiments.
FIG. 14—The Dengue virus peptide IVDLMCHATF (SEQ ID NO: 1) activates KIR2DS2 positive NK cells. 174 cells were incubated with the IVDLMCHATF (SEQ ID NO: 1) and then KIR2DS2-positive transfected NKL cells or KIR2DL2-positve transfected NKL cells. Activation of NK cells was assessed by western blotting for phosphorylated Vav1, and compared to total Vav1.
With reference to FIG. 6A, 1×10^6 L721.174 cells were incubated overnight at 26° C. with indicated peptides at a concentration of […]. The cells were then incubated with the NK cell line transfected with KIR2DS2 for 5 minutes. The cells were lysed in 1% digitonin buffer and the KIR2DS2 was then immunoprecipitated from the mixture using the GL183 antibody coupled to protein-G beads. The immune precipitate was analysed by Western blotting using a phosphotyrosine antibody. […] The cells were lysed in 1% NP-40 and then analysed by Western blotting using antibodies to pVav1 and then following stripping of the membrane to Vav1. […]
With reference to FIG. 7, 1×10^6 HLA-C*0304:ICP47:721.221 cells were incubated overnight at 26° C. with indicated peptides at a concentration of […]. […] The cells were lysed in 1% NP-40 and then analysed by Western blotting using antibodies to pVav1 and then following stripping of the membrane to Vav1. […]

[3] = tested on: KIR2DS2-positive NK cells; assay: CD107a degranulation of NK cells from KIR2DS2-positive donors cultured with peptide-loaded L721.174 cells; assay type: cell-based; conditions: KIR2DS2-positive donor, CH-L antibody positive NK cells, four hours, compared to no peptide
Procedure: (§1) A. cells were incubated in the presence or absence of peptides, and then cultured with NK cells from either a KIR2DS2-positive or KIR2DS2-negative donor. The level of CD107a (LAMP) expression was measured on NK cells positive for the CH-L antibody. This antibody binds to KIR2DS2, KIR2DL2 and KIR2DL3. B. Summary data from 5 KIR2DS2-positive and 6 KIR2DS2 • negative donors tested as per panel A of FIG. 2. To compare the different donors the data are normalized to 100% for the no peptide condition.
(§2) With reference to FIG. 2A, 3×10^5 L721.174 cells were incubated at 26° C. overnight in the presence or absence of peptides, and then cultured for four hours with NK cells from either a KIR2DS2-positive or KIR2DS2-negative donor. The level of CD107a (LAMP) expression was measured on NK cells positive for the CH-L antibody. This antibody binds to KIR2DS2, KIR2DL2 and KIR2DL3. […] With reference to FIG. 2B, summary data from 5 KIR2DS2-positive and 6 KIR2DS2 • negative donors were tested as per panel A of FIG. 2. To compare the different donors the data are normalized to 100% for the no peptide condition.

[4] = tested on: KIR2DS2-negative donor NK cells; assay: CD107a degranulation of NK cells from KIR2DS2-negative donors cultured with peptide-loaded L721.174 cells; assay type: cell-based; conditions: CH-L antibody positive NK cells, four hours, compared to no peptide
Procedure: as §1, §2

HLA-Cw*0102 [5] = target: T1, HLA-Cw*0102; conditions: control peptide, known binder; cited from earlier work

T2 sequence (P43631 22-245 limits assumed): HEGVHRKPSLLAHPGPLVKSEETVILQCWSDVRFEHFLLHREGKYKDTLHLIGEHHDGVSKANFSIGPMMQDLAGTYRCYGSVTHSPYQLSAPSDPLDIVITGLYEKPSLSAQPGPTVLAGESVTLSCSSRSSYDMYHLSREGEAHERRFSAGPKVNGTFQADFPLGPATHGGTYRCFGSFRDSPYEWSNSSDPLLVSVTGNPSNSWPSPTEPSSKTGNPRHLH

| Sequence | binding to HLA-Cw*0102 (mean fluorescence intensity of cell surface MHC Class I) (HLA-Cw*0102 [1]) | KIR2DS2-PE tetramer binding to HLA-C*0102 and peptide (KIR2DS2) | other results |
| --- | --- | --- | --- |
| AANVMAASL | bind HLA-Cw*0102 | KIR2DS2 BINDS |  |
| FLSDVPVATL | bind HLA-Cw*0102 | KIR2DS2 BINDS |  |
| GAVPDLATL |  |  | activation of KIR2DS2 (pVav1 vs Vav1) [2]: KIR2DS2 IS ACTIVATED |
| GAVPDLAWL |  |  | activation of KIR2DS2 (pVav1 vs Vav1) [2]: KIR2DS2 IS ACTIVATED |
| VAPWNSFAL [VAP-FA, negative control peptide, reference compound] |  |  | level of CD107a (LAMP) degranulation [3]: lower levels of degranulation; level of CD107a (LAMP) degranulation [4]: lower levels of degranulation |
| VAPWNSLSL |  |  | binding to HLA-Cw*0102 (HLA-Cw*0102 [5]): known to bind HLA-Cw*0102 |
| VIDAMCHATL | bind HLA-Cw*0102 | KIR2DS2 BINDS |  |
